Experimental findings from article PMC6321783 (Cellular signalling, 2018) are described below.

The assay concerns the target T1, HA-ASK1 (Apoptosis Signal-regulating Kinase 1) (UniProt Q99683 1-1374).
T1 sequence (looked up): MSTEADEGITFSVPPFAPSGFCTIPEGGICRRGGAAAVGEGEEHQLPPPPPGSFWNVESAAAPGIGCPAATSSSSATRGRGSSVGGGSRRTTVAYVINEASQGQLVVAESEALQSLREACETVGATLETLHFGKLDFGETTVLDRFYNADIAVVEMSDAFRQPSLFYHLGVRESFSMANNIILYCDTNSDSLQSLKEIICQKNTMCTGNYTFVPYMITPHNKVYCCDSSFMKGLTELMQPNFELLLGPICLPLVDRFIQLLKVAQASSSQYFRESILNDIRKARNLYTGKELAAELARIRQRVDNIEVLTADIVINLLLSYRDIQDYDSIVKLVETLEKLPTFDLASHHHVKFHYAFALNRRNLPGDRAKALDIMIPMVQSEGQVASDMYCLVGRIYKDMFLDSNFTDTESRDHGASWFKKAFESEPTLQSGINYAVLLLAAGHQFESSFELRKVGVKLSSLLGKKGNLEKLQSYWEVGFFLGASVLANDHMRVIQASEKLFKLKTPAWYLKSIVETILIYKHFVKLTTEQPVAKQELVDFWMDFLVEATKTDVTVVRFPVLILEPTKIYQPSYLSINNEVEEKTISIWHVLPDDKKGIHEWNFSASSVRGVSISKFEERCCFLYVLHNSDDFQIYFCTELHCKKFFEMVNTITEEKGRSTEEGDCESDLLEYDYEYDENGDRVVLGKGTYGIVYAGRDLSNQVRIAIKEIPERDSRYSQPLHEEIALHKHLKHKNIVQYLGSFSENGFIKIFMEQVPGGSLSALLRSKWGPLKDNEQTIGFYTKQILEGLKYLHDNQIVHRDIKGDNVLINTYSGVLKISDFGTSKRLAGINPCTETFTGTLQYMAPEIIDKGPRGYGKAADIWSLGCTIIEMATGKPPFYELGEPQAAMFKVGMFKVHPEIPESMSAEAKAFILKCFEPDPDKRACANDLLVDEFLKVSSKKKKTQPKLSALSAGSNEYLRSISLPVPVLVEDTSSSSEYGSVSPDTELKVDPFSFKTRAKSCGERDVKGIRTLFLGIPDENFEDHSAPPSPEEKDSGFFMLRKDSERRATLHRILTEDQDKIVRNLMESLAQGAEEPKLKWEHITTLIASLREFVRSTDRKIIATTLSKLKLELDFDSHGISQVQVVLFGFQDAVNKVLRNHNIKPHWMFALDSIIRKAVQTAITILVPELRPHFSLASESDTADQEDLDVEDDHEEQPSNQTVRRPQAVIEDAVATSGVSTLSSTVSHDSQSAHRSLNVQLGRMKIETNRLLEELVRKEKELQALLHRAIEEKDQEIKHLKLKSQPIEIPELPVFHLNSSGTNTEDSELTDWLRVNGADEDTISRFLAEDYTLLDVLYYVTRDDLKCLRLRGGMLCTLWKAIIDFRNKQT
The assay is described as follows: co-IP.

B1: arrestin-3-(1–366) fragment (expressed in COS7 cells) (domain or fragment, bovine, UniProt P32120-2 1-366, looked up)
chain: MGEKPGTRVFKKSSPNCKLTVYLGKRDFVDHLDKVDPVDGVVLVDPDYLKDRKVFVTLTCAFRYGREDLDVLGLSFRKDLFIANYQAFPPTPNPPRPPTRLQERLLRKLGQHAHPFFFTIPQNLPCSVTLQPGPEDTGKACGVDFEIRAFCAKSLEEKSHKRNSVRLVIRKVQFAPEKPGPQPSAETTRHFLMSDRSLHLEASLDKELYYHGEPLNVNVHVTNNSTKTVKKIKVSVRQYADICLFSTAQYKCPVAQVEQDDQVSPSSTFCKVYTITPLLSNNREKRGLALDGKLKHEDTNLASSTIVKEGANKEVLGILVSYRVKVKLVVSRGGDVSVELPFVLMHPKPHDHIALPRPQSAAPETD
For the molecule B1, the “binding relative to WT arrestin-3” value was ~0.33 of WT.
